To fix the notation:
B1: Histone-lysine N-methyltransferase 2A, residues 1148 to 1194; numbered along this chain, Q03164 (parent)
chain: KGRRSRRCGQCPGCQVPEDCGVCTNCLDKPKFGGRNIKKQCCKMRKC

± gives the uncertainty stated by the source.

Variants of B1 are the subject of the series. In words: abundance fitness (aPCA) (normalised: wild type 0, dead -1); higher = more abundant; growth selection in yeast, the domain comes from the species named. The settings on record: Homo sapiens.
On to KGRRSRRCGQCPGCQVPEDCGVCTNCLDHPKFGGRNIKKQCCKMRKC [K29H], for which the abundance fitness was -0.618 ± 0.23.

With KGRRSRRCGQCPGCQVPEDCGVCTNCLDFPKFGGRNIKKQCCKMRKC [K29F], the abundance fitness is -0.648 ± 0.32.

In the case of KGRRSRRCGQCPGCQVPEDCGVCTNCLDDPKFGGRNIKKQCCKMRKC [K29D], the abundance fitness was -0.411 ± 0.25.

For the variant KGRRSRRCGQCPGCQVPEDCGVCTNCLDMPKFGGRNIKKQCCKMRKC [K29M], the abundance fitness is -0.408 ± 0.14.

As for KGRRSRRCGQCPGCQVPEDCGVCTNCLDGPKFGGRNIKKQCCKMRKC [K29G], the abundance fitness was -0.463 ± 0.13.

KGRRSRRCGQCPGCQVPEDCGVCTNCLDQPKFGGRNIKKQCCKMRKC [K29Q]: the abundance fitness is -0.427 ± 0.19.

Consider KGRRSRRCGQCPGCQVPEDCGVCTNCLDEPKFGGRNIKKQCCKMRKC [K29E], for which the abundance fitness was -0.519 ± 0.31.

For KGRRSRRCGQCPGCQVPEDCGVCTNCLRKPKFGGRNIKKQCCKMRKC [D28R], the abundance fitness was -0.618 ± 0.11.

As to KGRRSRRCGQCPGCQVPEDCGVCTNCLHKPKFGGRNIKKQCCKMRKC [D28H], the abundance fitness is -1 ± 0.29.

Turning to KGRRSRRCGQCPGCQVPEDCGVCTNCLGKPKFGGRNIKKQCCKMRKC [D28G], the abundance fitness was -0.461 ± 0.088.

On to KGRRSRRCGQCPGCQVPEDCGVCTNCLFKPKFGGRNIKKQCCKMRKC [D28F], for which the abundance fitness is -0.856 ± 0.15.

Take KGRRSRRCGQCPGCQVPEDCGVCTNCLLKPKFGGRNIKKQCCKMRKC [D28L]: the abundance fitness was -0.921 ± 0.12.

Consider KGRRSRRCGQCPGCQVPEDCGVCTNCLEKPKFGGRNIKKQCCKMRKC [D28E], for which the abundance fitness was -0.502 ± 0.12.

As to KGRRSRRCGQCPGCQVPEDCGVCTNCLCKPKFGGRNIKKQCCKMRKC [D28C], the abundance fitness is -0.868 ± 0.16.

Take KGRRSRRCGQCPGCQVPEDCGVCTNCLQKPKFGGRNIKKQCCKMRKC [D28Q]: the abundance fitness is -0.509 ± 0.22.

Regarding KGRRSRRCGQCPGCQVPEDCGVCTNCLMKPKFGGRNIKKQCCKMRKC [D28M], the abundance fitness is -0.761 ± 0.2.

Turning to KGRRSRRCGQCPGCQVPEDCGVCTNCLAKPKFGGRNIKKQCCKMRKC [D28A], the abundance fitness was -0.475 ± 0.11.

As to KGRRSRRCGQCPGCQVPEDCGVCTNCLTKPKFGGRNIKKQCCKMRKC [D28T], the abundance fitness is -1.09 ± 0.36.

Take KGRRSRRCGQCPGCQVPEDCGVCTNCLWKPKFGGRNIKKQCCKMRKC [D28W]: the abundance fitness was -1.05 ± 0.17.

On to KGRRSRRCGQCPGCQVPEDCGVCTNCLVKPKFGGRNIKKQCCKMRKC [D28V], for which the abundance fitness was -0.374 ± 0.091.

For KGRRSRRCGQCPGCQVPEDCGVCTNCLPKPKFGGRNIKKQCCKMRKC [D28P], the abundance fitness was -0.937 ± 0.2.

On to KGRRSRRCGQCPGCQVPEDCGVCTNCLYKPKFGGRNIKKQCCKMRKC [D28Y], for which the abundance fitness is -0.657 ± 0.22.

In the case of KGRRSRRCGQCPGCQVPEDCGVCTNCLSKPKFGGRNIKKQCCKMRKC [D28S], the abundance fitness is -0.626 ± 0.1.

As for KGRRSRRCGQCPGCQVPEDCGVCTNCLIKPKFGGRNIKKQCCKMRKC [D28I], the abundance fitness is -0.628 ± 0.2.

Regarding KGRRSRRCGQCPGCQVPEDCGVCTNCLKKPKFGGRNIKKQCCKMRKC [D28K], the abundance fitness was -0.752 ± 0.25.

For the variant KGRRSRRCGQCPGCQVPEDCGVCTNCLNKPKFGGRNIKKQCCKMRKC [D28N], the abundance fitness is -0.326 ± 0.11.

For KGRRSRRCGQCPGCQVPEDCGVCTNCLDKWKFGGRNIKKQCCKMRKC [P30W], the abundance fitness is -0.711 ± 0.14.

As to KGRRSRRCGQCPGCQVPEDCGVCTNCLDKVKFGGRNIKKQCCKMRKC [P30V], the abundance fitness was -0.594 ± 0.096.

For KGRRSRRCGQCPGCQVPEDCGVCTNCLDKAKFGGRNIKKQCCKMRKC [P30A], the abundance fitness was -0.187 ± 0.099.

As to KGRRSRRCGQCPGCQVPEDCGVCTNCLDKLKFGGRNIKKQCCKMRKC [P30L], the abundance fitness is -0.361 ± 0.087.

As to KGRRSRRCGQCPGCQVPEDCGVCTNCLDKIKFGGRNIKKQCCKMRKC [P30I], the abundance fitness is -0.256 ± 0.21.

Take KGRRSRRCGQCPGCQVPEDCGVCTNCLDKTKFGGRNIKKQCCKMRKC [P30T]: the abundance fitness is -0.312 ± 0.14.

With KGRRSRRCGQCPGCQVPEDCGVCTNCLDKKKFGGRNIKKQCCKMRKC [P30K], the abundance fitness was -0.669 ± 0.19.

On to KGRRSRRCGQCPGCQVPEDCGVCTNCLDKSKFGGRNIKKQCCKMRKC [P30S], for which the abundance fitness is -0.303 ± 0.1.

Turning to KGRRSRRCGQCPGCQVPEDCGVCTNCLDKQKFGGRNIKKQCCKMRKC [P30Q], the abundance fitness is -0.381 ± 0.13.

For KGRRSRRCGQCPGCQVPEDCGVCTNCLDKDKFGGRNIKKQCCKMRKC [P30D], the abundance fitness is -0.77 ± 0.2.

Regarding KGRRSRRCGQCPGCQVPEDCGVCTNCLDKGKFGGRNIKKQCCKMRKC [P30G], the abundance fitness was -0.213 ± 0.082.

For KGRRSRRCGQCPGCQVPEDCGVCTNCLDKEKFGGRNIKKQCCKMRKC [P30E], the abundance fitness was determined as 0.109 ± 0.13.

Consider KGRRSRRCGQCPGCQVPEDCGVCTNCLDKFKFGGRNIKKQCCKMRKC [P30F], for which the abundance fitness is -0.705 ± 0.27.

Consider KGRRSRRCGQCPGCQVPEDCGVCTNCLDKRKFGGRNIKKQCCKMRKC [P30R], for which the abundance fitness is -0.432 ± 0.091.

For the variant KGRRSRRCGQCPGCQVPEDCGVCTNCLDKHKFGGRNIKKQCCKMRKC [P30H], the abundance fitness was -0.26 ± 0.18.

As for KGRRSRRCGQCPGCQVPEDCGVCTNCLDKNKFGGRNIKKQCCKMRKC [P30N], the abundance fitness amounted to 0.057 ± 0.18.

For the variant KGRRSRRCGQCPGCQVPEDCGVCTNCLDKYKFGGRNIKKQCCKMRKC [P30Y], the abundance fitness is -0.712 ± 0.21.

As for KGRRSRRCGQCPGCQVPEDCGVCTNVLDKPKFGGRNIKKQCCKMRKC [C26V], the abundance fitness is -1.04 ± 0.14.

For KGRRSRRCGQCPGCQVPEDCGVCTNLLDKPKFGGRNIKKQCCKMRKC [C26L], the abundance fitness is -0.902 ± 0.12.

With KGRRSRRCGQCPGCQVPEDCGVCTNPLDKPKFGGRNIKKQCCKMRKC [C26P], the abundance fitness was -0.75 ± 0.16.

For the variant KGRRSRRCGQCPGCQVPEDCGVCTNTLDKPKFGGRNIKKQCCKMRKC [C26T], the abundance fitness is -0.959 ± 0.18.

Take KGRRSRRCGQCPGCQVPEDCGVCTNMLDKPKFGGRNIKKQCCKMRKC [C26M]: the abundance fitness is -0.876 ± 0.16.

As for KGRRSRRCGQCPGCQVPEDCGVCTNKLDKPKFGGRNIKKQCCKMRKC [C26K], the abundance fitness is -0.785 ± 0.18.

Turning to KGRRSRRCGQCPGCQVPEDCGVCTNHLDKPKFGGRNIKKQCCKMRKC [C26H], the abundance fitness is -0.988 ± 0.29.

As to KGRRSRRCGQCPGCQVPEDCGVCTNGLDKPKFGGRNIKKQCCKMRKC [C26G], the abundance fitness is -0.974 ± 0.11.

For KGRRSRRCGQCPGCQVPEDCGVCTNWLDKPKFGGRNIKKQCCKMRKC [C26W], the abundance fitness was -0.778 ± 0.15.

For KGRRSRRCGQCPGCQVPEDCGVCTNYLDKPKFGGRNIKKQCCKMRKC [C26Y], the abundance fitness was -0.851 ± 0.13.

On to KGRRSRRCGQCPGCQVPEDCGVCTNSLDKPKFGGRNIKKQCCKMRKC [C26S], for which the abundance fitness is -1.02 ± 0.13.

Turning to KGRRSRRCGQCPGCQVPEDCGVCTNRLDKPKFGGRNIKKQCCKMRKC [C26R], the abundance fitness is -0.602 ± 0.1.
